Assay results as given in paper PMC5442324, “Zinc is a potent and specific inhibitor of IFN-λ3 signalling” (Nature Communications, 2017).

What was measured:
[1] = target: IFN-α (Roferon-A) (UniProt P01563); experiment: zinc IMAC resin binding and SDS-PAGE; 200 ng IFN-α or IFN-λ3 on IMAC-Select gel charged with ZnSO4, 4 °C, 50 mM NaH2PO4, 300 mM NaCl, pH 8.0; eluted with 100 mM EDTA; SDS-PAGE, SYPRO ruby; bands read as monomer and dimer
[2] = target: the molecule itself; experiment: as above

## IFN-α (Roferon-A) (from UniProt P01563 24-188) (ligand)
[1]
  stoichiometry N: 2

B1: recombinant human IFN-λ3 (ligand, UniProt Q8IZI9 22-196, looked up)
chain: VPVARLRGALPDARGCHIAQFKSLSPQELQAFKRAKDALEESLLLKDCKCRSRLFPRTWDLRQLQVRERPVALEAELALTLKVLEATADTDPALGDVLDQPLHTLHHILSQLRACIQPQPTAGPRTRGRLHHWLHRLQEAPKKESPGCLEASVTFNLFRLLTRDLNCVASGDLCV
notes: IFN-λ3 (interferon lambda 3), human, recombinant, R&D Systems; (Cys169); also called interferon lambda 3; IFNL3; source: bought: R&D Systems
[2]
  stoichiometry N: 2
